We go through two molecules from patent US20160176932A1 (Janssen / Centocor, published 2016).

In one experiment the target is A2_F24 VI56IV (RSV A2) (UniProt P03420). Briefly: Octet endpoint assay, CR9501 on sensor, culture supernatant. Background: BLI is a label-free optical method that tracks binding on a fibre tip over time.
Another experiment has as its target T1, B1_N67I, S215P (RSV B1, UniProt O36634 27-109; O36634 137-540).
T1 construct: also called PreF N67I S215P, RSV B1, fibritin
T1 chain 1: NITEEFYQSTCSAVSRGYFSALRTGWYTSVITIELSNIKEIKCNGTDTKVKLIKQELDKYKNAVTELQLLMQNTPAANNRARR
T1 chain 2: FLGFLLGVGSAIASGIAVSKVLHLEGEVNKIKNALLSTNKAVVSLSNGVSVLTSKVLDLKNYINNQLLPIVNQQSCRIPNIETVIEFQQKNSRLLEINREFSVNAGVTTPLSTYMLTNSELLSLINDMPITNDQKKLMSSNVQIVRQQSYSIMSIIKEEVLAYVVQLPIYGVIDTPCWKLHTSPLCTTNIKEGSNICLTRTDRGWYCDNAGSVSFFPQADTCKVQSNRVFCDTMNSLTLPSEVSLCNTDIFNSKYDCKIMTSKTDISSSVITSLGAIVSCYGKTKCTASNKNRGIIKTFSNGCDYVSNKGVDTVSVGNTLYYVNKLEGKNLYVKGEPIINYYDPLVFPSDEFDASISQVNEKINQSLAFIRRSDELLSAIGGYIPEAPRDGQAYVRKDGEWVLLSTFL
Briefly: Quantitative Octet, CR9501 on sensor, culture supernatant.

The target in another experiment is T2, B1_N67I, S215P loop (RSV B1, UniProt O36634 26-540).
T2 construct: Whole entry named; it begins with the signal peptide 1-26; also called PreFL N67I S215P, RSV B1, fibritin, Loop; F24-N67I + S215P: RSV B1, linker stabilized, fibritin
T2 chain: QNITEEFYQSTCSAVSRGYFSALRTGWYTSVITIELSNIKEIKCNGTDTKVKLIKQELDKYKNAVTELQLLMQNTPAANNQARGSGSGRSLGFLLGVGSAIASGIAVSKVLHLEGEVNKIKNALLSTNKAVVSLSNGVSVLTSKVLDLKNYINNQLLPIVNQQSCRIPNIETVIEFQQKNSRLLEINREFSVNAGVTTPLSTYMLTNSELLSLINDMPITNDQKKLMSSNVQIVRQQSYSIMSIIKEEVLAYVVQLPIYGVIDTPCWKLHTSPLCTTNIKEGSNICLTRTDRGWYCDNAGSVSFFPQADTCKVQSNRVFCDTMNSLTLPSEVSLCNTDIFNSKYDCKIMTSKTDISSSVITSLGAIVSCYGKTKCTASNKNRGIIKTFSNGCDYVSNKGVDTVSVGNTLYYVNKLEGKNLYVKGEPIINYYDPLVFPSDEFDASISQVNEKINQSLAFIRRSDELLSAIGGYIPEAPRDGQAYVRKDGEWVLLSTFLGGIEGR
Described as above.

Procedure for B1_N67I, S215P loop: To measure concentration of the pre-fusion RSV F protein in cell culture supernatants, quantitative Octet-based method was used. […] Afterwards, the coated biosensors were blocked in mock cell culture supernatant. Quantitative experiment was performed as follows: temperature 30° C., shaking speed 1000 rpm, time of the assay 300 seconds. Concentration of the protein in the cell culture supernatant was calculated using standard curve. The standard curve was prepared for each coated antibody using the A2_F24 N67I+S215P (SEQ NO:21) protein, diluted in mock cell culture supernatant. The measurement was done on the day of supernatant harvest (day 1) and after storage of the supernatant at 4° C. for 5 days or longer. […] The data analysis was done using the FORTEBIO® Data Analysis 6.4 software (FORTEBIO®).

In the experiment with A2_F24 VI56IV (RSV A2), CR9501 (antibody) came in with a % of CR9501 binding after 5 days at 4 C relative to day 1 of 54%.

B1: CR9501 (antibody, V domains shown)
VH: QVQLVQSGPGLVKPSQTLALTCNVSGASINSDNYYWTWIRQRPGGGLEWIGHISYTGNTYYTPSLKSRLSMSLETSQSQFSLRLTSVTAADSAVYFCAACGAYVLISNCGWFDSWGQGTQVTVSS
VL: EIVMTQSPSSLSASIGDRVTITCQASQDISTYLNWYQQKPGQAPRLLIYGASNLETGVPSRFTGSGYGTDFSVTISSLQPEDIATYYCQQYQYLPYTFAPGTKVEIK
notes: Monoclonal antibody with the variable regions of 58C5; Biotinylated and immobilised on streptavidin sensors in the Octet assays; also called pre-fusion-specific Mab CR9501
On to B1, for which the “% protein concentration (CR9501) after 5 days at 4 C relative to day of harvest” value in the experiment with B1_N67I, S215P turned out to be 90.9%; with B1_N67I, S215P loop, 108%.
